Literature values in publication PMC10412679.

Target: CD47 (Homo sapiens) (UniProt Q08722)

magrolimab
Kd: 8 nM
